This is an account of results in doi:10.1101/2021.05.09.442808 (bioRxiv, 2021).

In the assay the target is SARS-CoV-2 S 2P prefusion-stabilized ectodomain trimer (SARS-CoV-2 (Wuhan-Hu-1), stabilised). In words: SPR. Background: SPR reads the build-up and loss of mass on a sensor chip optically.

B1: S2P6 Fab fragment (Fab, V domains shown)
VH: EVQLVQSGAEVKKPGASVKVSCKASGYTFTSQYMHWVRQAPGQGLEWIGIINPSGVHTSYAQKFQGRVTLTRDTSTSTLYMELSSLRSEDTAVYYCARGSPKGAFDYWGQGTLVTVSS
VL: not shown
One may read the Kd as the constant that tells how readily two partners part at equilibrium. In the case of B1, the dissociation constant (Kd) was 7 nM. This lies in the single-digit nanomolar range.
